T1: Human BCMA (human, UniProt Q02223 1-54, limits assumed)
T1 construct: also called huBCMA; B-cell maturation antigen
T1 sequence (looked up): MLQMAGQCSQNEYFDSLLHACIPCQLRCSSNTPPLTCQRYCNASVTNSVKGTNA


How the values were obtained:
Human BCMA = target: T1, Human BCMA; experiment: SPR, IgG immobilised, human BCMA analyte
Experimental: (§1) All experiments were performed on a Bio-Rad Proteon XPR36 surface Plasmon resonance biosensor (Bio-Rad, Hercules, Calif.). […] The analysis temperature for the immobilization was 25° C. and the running buffer was HBS-T+(10 mM HEPES, 150 mM NaCl, 0.05% Tween-20, pH 7.4). Channels were activated in the analyte (horizontal) direction by injecting a mixture of 1 mM ECD and 0.25 mM NHS for 3 minutes at a flow rate of 30 μL/min. IgGs were immobilized on the activated spots by injecting them in the ligand (vertical) direction at 20 μg/mL in 10 mM Acetate pH 4.5 buffer for 1.5 minutes at […]. The activated surfaces were blocked by injecting 1M ethanolamine, pH 8.5 in the analyte direction for 3 minutes at 30 μL/min.
(§2) The analysis temperature for the BCMA binding analysis was 37° C. or 25° C. in a running buffer of HBS-T+, supplemented with 1 mg/mL BSA. A kinetic titration method was employed for the interaction analysis as described in Abdiche, et al. Human BCMA (huBCMA) or cynomolgus monkey BCMA (cyBCMA) analyte was injected in the analyte direction using a series of injections from low to high concentration. The concentrations used were 0.08 nM, 0.4 nM, 2 nM, 10 nM and 50 nM (a 5-membered series, with a 5-fold dilution factor and top concentration of 50 nM). The association time for a given analyte dilution was two minutes. Immediately after the 50 nM BCMA injection, dissociation was monitored for 2 hours.
(§3) The sensorgrams were double-referenced and fit to a 1:1 Langmuir with mass transport kinetic titration model in BIAevaluation Software version 4.1.1 (GE Lifesciences, Piscataway, N.J.).

Cynomolgus monkey BCMA = target: T2, Cynomolgus monkey BCMA (cynomolgus monkey); experiment: SPR, IgG immobilised, cyno BCMA analyte
T2 construct: Soluble analyte in SPR; also called cyBCMA; Cyno BCMA
Experimental: as §1, §2, §3

Binder	Kd (Human BCMA)	koff (Human BCMA)	kon (Human BCMA)	Kd (Cynomolgus monkey BCMA)	koff (Cynomolgus monkey BCMA)	kon (Cynomolgus monkey BCMA)
C01_Rd4_0.6nM_C16 (antibody, V domains shown, IgG) VH: EVQLLESGGGLVQPGGSLRLSCAASGFTFSSYPMSWVRQAPGKGLEWVSAIGGSGGSLPYADSVKGRFTISRDNSKNTLYLQMNSLRAEDTAVYYCARYWPMDSWGQGTLVTVSS VL: EIVLTQSPGTLSLSPGERATLSCRASQSVSSTYLAWYQQKPGQAPRLLIYDASSRAPGIPDRFSGSGSGTDFTLTISRLEPEDFAVYYCQQYSSWPLTFGQGTKVEIK	0.407 nM	0.0063 s⁻¹	1.55e+07 M⁻¹ s⁻¹	0.939 nM	0.00464 s⁻¹	4.95e+06 M⁻¹ s⁻¹
C01_Rd4_0.6nM_C27 (antibody, V domains shown, IgG) VH: EVQLLESGGGLVQPGGSLRLSCAASGFTFSSYPMSWVRQAPGKGLEWVSAIGGSGGSLPYADSVKGRFTISRDNSKNTLYLQMNSLRAEDTAVYYCARYWPMDSWGQGTLVTVSS VL: EIVLTQSPGTLSLSPGERATLSCRASQSVSSTYLAWYQQKPGQAPRLLIYDASSRAPGIPDRFSGSGSGTDFTLTISRLEPEDFAVYYCQQYSRWPLTFGQGTKVEIK	0.303 nM	0.00374 s⁻¹	1.23e+07 M⁻¹ s⁻¹	0.852 nM	0.00285 s⁻¹	3.34e+06 M⁻¹ s⁻¹
C01_Rd4_6nM_C24 (antibody, V domains shown, IgG) VH: EVQLLESGGGLVQPGGSLRLSCAASGFTFSSYPMSWVRQAPGKGLEWVSAIGGSGGSLPYADSVKGRFTISRDNSKNTLYLQMNSLRAEDTAVYYCARYWPMDSWGQGTLVTVSS VL: EIVLTQSPGTLSLSPGERATLSCRASQSVSPEYLAWYQQKPGQAPRLLIYDASSRAPGIPDRFSGSGSGTDFTLTISRLEPEDFAVYYCQQYSVWPLTFGQGTKVEIK	0.467 nM	0.00348 s⁻¹	7.47e+06 M⁻¹ s⁻¹	0.281 nM	0.000891 s⁻¹	3.17e+06 M⁻¹ s⁻¹
C01_Rd4_6nM_C04 (antibody, V domains shown, IgG) VH: EVQLLESGGGLVQPGGSLRLSCAASGFTFSSYPMSWVRQAPGKGLEWVSAIGGSGGSLPYADSVKGRFTISRDNSKNTLYLQMNSLRAEDTAVYYCARYWPMDSWGQGTLVTVSS VL: EIVLTQSPGTLSLSPGERATLSCCSSQSVSSTYLAWYQQKPGQAPRLLIYDASSRAPGIPDRFSGSGSGTDFTLTISRLEPEDFAVYYCQQYSAFPLTFGQGTKVEIK	2.13 nM	0.0497 s⁻¹	2.33e+07 M⁻¹ s⁻¹	5.16 nM	0.0327 s⁻¹	6.34e+06 M⁻¹ s⁻¹
COMBO_Rd4_0.6nM_C09 (antibody, V domains shown, IgG) VH: EVQLLESGGGLVQPGGSLRLSCAASGFTFSSYPMSWVRQAPGKGLEWVSAIGGSGGSLPYADSVKGRFTISRDNSKNTLYLQMNSLRAEDTAVYYCARYWPMDIWGQGTLVTVSS VL: EIVLTQSPGTLSLSPGERATLSCRASQSVSSTYLAWYQQKPGQAPRLLMYDASIRATGIPDRFSGSGSGTDFTLTISRLEPEDFAVYYCQQYQEWPLTFGQGTKVEIK	0.031 nM	0.000319 s⁻¹	1.04e+07 M⁻¹ s⁻¹	0.092 nM	0.000346 s⁻¹	3.77e+06 M⁻¹ s⁻¹
COMBO_Rd4_0.6nM_C11 (antibody, V domains shown, IgG) VH: EVQLLESGGGLVQPGGSLRLSCAASGFTFSSYPMSWVRQAPGKGLEWVSAALGSGGSTYYADSVKGRFTISRDNSKNTLYLQMNSLRAEDTAVYYCARYWPMSLWGQGTLVTVSS VL: EIVLTQSPGTLSLSPGERATLSCRASQSVSVRYLAWYQQKPGQAPRLLMYDASIRATGIPDRFSGSGSGTDFTLTISRLEPEDFAVYYCQQYGSWPITFGQGTKVEIK	0.207 nM	0.00106 s⁻¹	5.11e+06 M⁻¹ s⁻¹	1.92 nM	0.00423 s⁻¹	2.2e+06 M⁻¹ s⁻¹
COMBO_Rd4_0.6nM_C14 (antibody, V domains shown, IgG) VH: EVQLLESGGGLVQPGGSLRLSCAASGFTFSSYPMSWVRQAPGKGLEWVSAIGGSGGSLPYADSVKGRFTISRDNSKNTLYLQMNSLRAEDTAVYYCARYWPMDIWGQGTLVTVSS VL: EIVLTQSPGTLSLSPGERATLSCRASQSVSALYLAWYQQKPGQAPRLLMYDASIRATGIPDRFSGSGSGTDFTLTISRLEPEDFAVYYCQQYYGWPLTFGQGTKVEIK	0.038 nM	0.000328 s⁻¹	8.66e+06 M⁻¹ s⁻¹	0.185 nM	0.000645 s⁻¹	3.48e+06 M⁻¹ s⁻¹
C01_Rd4_6nM_C20 (antibody, V domains shown, IgG) VH: EVQLLESGGGLVQPGGSLRLSCAASGFTFSSYPMSWVRQAPGKGLEWVSAIGGSGGSLPYADSVKGRFTISRDNSKNTLYLQMNSLRAEDTAVYYCARYWPMDSWGQGTLVTVSS VL: EIVLTQSPGTLSLSPGERATLSCRASQSVSPLYLAWYQQKPGQAPRLLIYDASSRAPGIPDRFSGSGSGTDFTLTISRLEPEDFAVYYCQQYSAFPLTFGQGTKVEIK	0.459 nM	0.00276 s⁻¹	6.02e+06 M⁻¹ s⁻¹	1.74 nM	0.00625 s⁻¹	3.6e+06 M⁻¹ s⁻¹
C01_Rd4_6nM_C10 (antibody, V domains shown, IgG) VH: EVQLLESGGGLVQPGGSLRLSCAASGFTFSSYPMSWVRQAPGKGLEWVSAIGGSGGSLPYADSVKGRFTISRDNSKNTLYLQMNSLRAEDTAVYYCARYWPMDSWGQGTLVTVSS VL: EIVLTQSPGTLSLSPGERATLSCRASQSVSSVYLAWYQQKPGQAPRLLIYDASSRAPGIPDRFSGSGSGTDFTLTISRLEPEDFAVYYCQQYSTWPLTFGQGTKVEIK	0.162 nM	0.00212 s⁻¹	1.31e+07 M⁻¹ s⁻¹	0.493 nM	0.00219 s⁻¹	4.44e+06 M⁻¹ s⁻¹
C01_Rd4_6nM_C12 (antibody, V domains shown, IgG; also called PC1C12) VH: EVQLLESGGGLVQPGGSLRLSCAASGFTFSSYPMSWVRQAPGKGLEWVSAIGGSGGWSYYADSVKGRFTISRDNSKNTLYLQMNSLRAEDTAVYYCARYWPMDSWGQGTLVTVSS VL: EIVLTQSPGTLSLSPGERATLSCWLSQSVSSTYLAWYQQKPGQAPRLLIYDASSRAPGIPDRFSGSGSGTDFTLTISRLEPEDFAVYYCQQYSEWPLTFGQGTKVEIK	0.535 nM	0.00649 s⁻¹	1.21e+07 M⁻¹ s⁻¹	0.82 nM	0.0037 s⁻¹	4.51e+06 M⁻¹ s⁻¹
C01_Rd4_6nM_C26 (antibody, V domains shown, IgG) VH: EVQLLESGGGLVQPGGSLRLSCAASGFTFSSYPMSWVRQAPGKGLEWVSAIGGSGGSLPYADSVKGRFTISRDNSKNTLYLQMNSLRAEDTAVYYCARYWPMDSWGQGTLVTVSS VL: EIVLTQSPGTLSLSPGERATLSCRASQSVSALYLAWYQQKPGQAPRLLIYDASSRAPGIPDRFSGSGSGTDFTLTISRLEPEDFAVYYCQQYSAWPLTFGQGTKVEIK	0.09 nM	0.00136 s⁻¹	1.5e+07 M⁻¹ s⁻¹	0.419 nM	0.00199 s⁻¹	4.75e+06 M⁻¹ s⁻¹
COMBO_Rd4_0.6nM_C05 (antibody, V domains shown, IgG) VH: EVQLLESGGGLVQPGGSLRLSCAASGFTFSSYAMNWVRQAPGKGLEWVSAIGGSGGSTYYADSVKGRFTISRDNSKNTLYLQMNSLRAEDTAVYYCARYWPMSLWGQGTLVTVSS VL: EIVLTQSPGTLSLSPGERATLSCRASQSVSSTYLAWYQQKPGQAPRLLMYDASIRATGIPDRFSGSGSGTDFTLTISRLEPEDFAVYYCQQYMSWPLTFGQGTKVEIK	0.115 nM	0.000497 s⁻¹	4.32e+06 M⁻¹ s⁻¹	0.886 nM	0.00172 s⁻¹	1.94e+06 M⁻¹ s⁻¹
C01_Rd4_6nM_C09 (antibody, V domains shown, IgG) VH: EVQLLESGGGLVQPGGSLRLSCAASGFTFSSYPMSWVRQAPGKGLEWVSATVGSGGSIGYADSVKGRFTISRDNSKNTLYLQMNSLRAEDTAVYYCARYWPMDSWGQGTLVTVSS VL: EIVLTQSPGTLSLSPGERATLSCACSQSVSSTYLAWYQQKPGQAPRLLIYDASSRAPGIPDRFSGSGSGTDFTLTISRLEPEDFAVYYCQQYSAWPLTFGQGTKVEIK	0.811 nM	0.0128 s⁻¹	1.58e+07 M⁻¹ s⁻¹	2.33 nM	0.00868 s⁻¹	3.73e+06 M⁻¹ s⁻¹
COMBO_Rd4_0.6nM_C04 (antibody, V domains shown, IgG) VH: EVQLLESGGGLVQPGGSLRLSCAASGFTFSSYPMSWVRQAPGKGLEWVSAHIGSGGSTYYADSVKGRFTISRDNSKNTLYLQMNSLRAEDTAVYYCARYWPMDSWGQGTLVTVSS VL: EIVLTQSPGTLSLSPGERATLSCRASQSVSSTYLAWYQQKPGQAPRLLMYDASIRATGIPDRFSGSGSGTDFTLTISRLEPEDFAVYYCQQYQSWPLTFGQGTKVEIK	0.015 nM	0.000158 s⁻¹	1.07e+07 M⁻¹ s⁻¹	0.039 nM	0.000137 s⁻¹	3.52e+06 M⁻¹ s⁻¹
COMBO_Rd4_0.6nM_C02 (antibody, V domains shown, IgG) VH: EVQLLESGGGLVQPGGSLRLSCAASGFTFSSYPMSWVRQAPGKGLEWVSAIGGSGGSLPYADSVKGRFTISRDNSKNTLYLQMNSLRAEDTAVYYCARYWPMDSWGQGTLVTVSS VL: EIVLTQSPGTLSLSPGERATLSCRASIAVSSTYLAWYQQKPGQAPRLLMYDASIRATGIPDRFSGSGSGTDFTLTISRLEPEDFAVYYCQQYMVWPLTFGQGTKVEIK	0.022 nM	0.000185 s⁻¹	8.57e+06 M⁻¹ s⁻¹	0.164 nM	0.000494 s⁻¹	3.01e+06 M⁻¹ s⁻¹
